{
  "source": "paper PMC3179519",
  "target": "Salmonella SJW1660 flagellin capable of forming L-type straight filaments (Salmonella (S. typhimurium)) (UniProt P06179)",
  "assay": "co-sedimentation; monomers of SJW1660 flagellin and FliC(XynA) mixed at 1:1 to 1:5 (w/w) in 20 mM Tris-HCl, 150 mM NaCl (pH 7.8), polymerized with ammonium sulfate (0.4-0.6 M), 2 days at room temperature; centrifuged, pellet dissolved in buffer without AS, SDS-PAGE with densitometry; filaments also seen by dark-field microscopy and AFM",
  "data": [
    {"substance": "FliC(XynA) fusion protein (flagellin-xylanase A chimera) (from UniProt P18429 29-213)", "values": [
      {"measurement": "band intensity of FliC(XynA) in the copolymer pellet, 1:1 mixing ratio (FliC band 49.3)", "result": 49.6},
      {"measurement": "band intensity of FliC(XynA) in the copolymer pellet, 1:2 mixing ratio (FliC band 50.7)", "result": 34.2}
    ]}
  ]
}
